From publication PMC3447998 (Biochemistry, 2012)
Where no end group is shown, it is not given here. Me3 = trimethylated alpha-amino group on the N-terminal residue; Me2 = dimethylated alpha-amino group on the N-terminal residue

T1: recombinant human NRMT (N-terminal RCC1 methyltransferase) (human, UniProt Q9BV86 1-223)
T1 sequence (looked up): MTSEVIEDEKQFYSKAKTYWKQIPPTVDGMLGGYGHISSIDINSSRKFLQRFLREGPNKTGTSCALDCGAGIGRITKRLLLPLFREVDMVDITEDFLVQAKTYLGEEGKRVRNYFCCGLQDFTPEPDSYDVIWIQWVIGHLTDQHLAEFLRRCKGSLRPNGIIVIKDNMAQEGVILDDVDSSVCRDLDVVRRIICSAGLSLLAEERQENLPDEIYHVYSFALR


Legend:
[1] = biological target: T1, recombinant human NRMT (N-terminal RCC1 …); experiment: ITC
[2] = biological target: T1, recombinant human NRMT (N-terminal RCC1 …); experiment: ITC; remark: listed apart in the source

| Binder | Ka [1] [M⁻¹] | Kd [2] [nM] | dH [2] [kcal/mol] | stoichiometry N [2] | Kd of the first phase of the bi-phasic curve [2] [nM] | Kd of the second phase of the bi-phasic curve [2] [nM] | dH of the first phase of the bi-phasic curve [2] [kcal/mol] | dH of the second phase of the bi-phasic curve [2] [kcal/mol] |
| --- | --- | --- | --- | --- | --- | --- | --- | --- |
| Me3-SPKRIAKRRS [me3SPKRIAKRRS, 10-residue me3-SPK-RCC1 N-terminal product peptide] | 480000 | 2000 | -4.33 | 1.2 |  |  |  |  |
| SPKRIAKRRS [SPKRIAKRRS, wild-type 10-residue SPK-RCC1 N-terminal peptide] | 100000 | 10000 | -9.94 ± 0.207 | 0.8 |  |  |  |  |
| Me2-PPKRIAKRRS [me2PPKRIAKRRS, 10-residue me2-PPK-RCC1 N-terminal product peptide] | 770000 | 1300 | -5.77 ± 0.093 | 0.9 |  |  |  |  |
| PPKRIAKRRS [PPKRIAKRRS, 10-residue PPK-RCC1 N-terminal peptide] |  |  |  |  | 1.5 | 140 | -31 ± 0.221 | -9.43 ± 0.192 |
